Results on 13 variants are retold here after IntAct's records for PubMed 11752373.

To fix the notation:
B1: E3 ubiquitin-protein ligase COP1 (Arabidopsis thaliana (Mouse-ear cress)), P43254 (parent)
chain: MEEISTDPVVPAVKPDPRTSSVGEGANRHENDDGGSGGSEIGAPDLDKDLLCPICMQIIKDAFLTACGHSFCYMCIITHLRNKSDCPCCSQHLTNNQLYPNFLLDKLLKKTSARHVSKTASPLDQFREALQRGCDVSIKEVDNLLTLLAERKRKMEQEEAERNMQILLDFLHCLRKQKVDELNEVQTDLQYIKEDINAVERHRIDLYRARDRYSVKLRMLGDDPSTRNAWPHEKNQIGFNSNSLSIRGGNFVGNYQNKKVEGKAQGSSHGLPKKDALSGSDSQSLNQSTVSMARKKRIHAQFNDLQECYLQKRRQLADQPNSKQENDKSVVRREGYSNGLADFQSVLTTFTRYSRLRVIAEIRHGDIFHSANIVSSIEFDRDDELFATAGVSRCIKVFDFSSVVNEPADMQCPIVEMSTRSKLSCLSWNKHEKNHIASSDYEGIVTVWDVTTRQSLMEYEEHEKRAWSVDFSRTEPSMLVSGSDDCKVKVWCTRQEASVINIDMKANICCVKYNPGSSNYIAVGSADHHIHYYDLRNISQPLHVFSGHKKAVSYVKFLSNNELASASTDSTLRLWDVKDNLPVRTFRGHTNEKNFVGLTVNSEYLACGSETNEVYVYHKEITRPVTSHRFGSPDMDDAEEEAGSYFISAVCWKSDSPTMLTANSQGTIKVLVLAA
B2: Cryptochrome-1 (Arabidopsis thaliana (Mouse-ear cress)), Q43125 (parent)
chain: MSGSVSGCGSGGCSIVWFRRDLRVEDNPALAAAVRAGPVIALFVWAPEEEGHYHPGRVSRWWLKNSLAQLDSSLRSLGTCLITKRSTDSVASLLDVVKSTGASQIFFNHLYDPLSLVRDHRAKDVLTAQGIAVRSFNADLLYEPWEVTDELGRPFSMFAAFWERCLSMPYDPESPLLPPKKIISGDVSKCVADPLVFEDDSEKGSNALLARAWSPGWSNGDKALTTFINGPLLEYSKNRRKADSATTSFLSPHLHFGEVSVRKVFHLVRIKQVAWANEGNEAGEESVNLFLKSIGLREYSRYISFNHPYSHERPLLGHLKFFPWAVDENYFKAWRQGRTGYPLVDAGMRELWATGWLHDRIRVVVSSFFVKVLQLPWRWGMKYFWDTLLDADLESDALGWQYITGTLPDSREFDRIDNPQFEGYKFDPNGEYVRRWLPELSRLPTDWIHHPWNAPESVLQAAGIELGSNYPLPIVGLDEAKARLHEALSQMWQLEAASRAAIENGSEEGLGDSAEVEEAPIEFPRDITMEETEPTRLNPNRRYEDQMVPSITSSLIRPEEDEESSLNLRNSVGDSRAEVPRNMVNTNQAQQRRAEPASNQVTAMIPEFNIRIVAESTEDSTAESSSSGRRERSGGIVPEWSPGYSEQFPSEENGIGGGSTTSSYLQNHHEILNWRRLSQTG
partner: B1 chain

Variants of B1 are the subject of the first test. The conditions noted are these: with cry1_arath CRY1, Q43125.
As to W467A, the “effect of a mutation on the interaction” value is “decreasing interaction”.

Consider K550E, for which the “effect of a mutation on the interaction” value is reported as “decreasing interaction”.

With E592R, the “effect of a mutation on the interaction” value is on record as “decreasing interaction”.

For the variant R465E, the “effect of a mutation on the interaction” value is given as “decreasing interaction”.

K422E: the “effect of a mutation on the interaction” value is “decreasing interaction”.

Turning to G524E, the “effect of a mutation on the interaction” value is listed as “decreasing interaction”.

In the next test the parent is B2. The settings on record: with cop1_arath COP1, P43254.
For the variant E531K, the “effect of a mutation on the interaction” value is “decreasing interaction”.

For R576K, the “effect of a mutation on the interaction” value is given as “decreasing interaction”.

For the variant R611K, the “effect of a mutation on the interaction” value is given as “decreasing interaction”.

Regarding R581K, the “effect of a mutation on the interaction” value is listed as “decreasing interaction”.

For E559K, the “effect of a mutation on the interaction” value is reported as “disrupting interaction”.

As for E515K, the “effect of a mutation on the interaction” value was “decreasing interaction”.

For the variant P549L, the “effect of a mutation on the interaction” value was “decreasing interaction”.
